T1: murine CD19 protein (murine, UniProt P25918 17-287, limits assumed)
T1 construct: bought protein; also called commercial murine CD19
T1 sequence (looked up): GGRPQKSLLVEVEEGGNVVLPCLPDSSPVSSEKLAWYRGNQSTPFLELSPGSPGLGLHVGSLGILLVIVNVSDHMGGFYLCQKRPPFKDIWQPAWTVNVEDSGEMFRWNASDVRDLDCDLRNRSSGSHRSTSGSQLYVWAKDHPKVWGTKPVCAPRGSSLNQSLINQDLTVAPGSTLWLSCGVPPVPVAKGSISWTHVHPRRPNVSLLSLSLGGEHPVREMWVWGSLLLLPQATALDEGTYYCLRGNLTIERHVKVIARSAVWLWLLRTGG

T2: Human CD19-his protein (human, UniProt P15391 20-291)
T2 construct: bought protein; also called human CD19 protein; recombinant human CD19-His; not shown: His tag
T2 sequence (looked up): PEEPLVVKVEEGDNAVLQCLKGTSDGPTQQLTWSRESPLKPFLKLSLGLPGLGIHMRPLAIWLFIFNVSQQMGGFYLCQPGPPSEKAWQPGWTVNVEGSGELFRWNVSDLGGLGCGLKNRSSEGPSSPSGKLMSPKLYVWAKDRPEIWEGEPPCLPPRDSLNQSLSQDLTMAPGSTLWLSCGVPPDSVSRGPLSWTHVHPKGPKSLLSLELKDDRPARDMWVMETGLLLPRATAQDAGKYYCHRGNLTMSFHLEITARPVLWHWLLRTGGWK

T3: human CD19 exon1-3-his protein (human, UniProt P15391 20-186, limits assumed)
T3 construct: made in HEK293E cells; also called membrane-distal end; not shown: His tag
T3 sequence (looked up): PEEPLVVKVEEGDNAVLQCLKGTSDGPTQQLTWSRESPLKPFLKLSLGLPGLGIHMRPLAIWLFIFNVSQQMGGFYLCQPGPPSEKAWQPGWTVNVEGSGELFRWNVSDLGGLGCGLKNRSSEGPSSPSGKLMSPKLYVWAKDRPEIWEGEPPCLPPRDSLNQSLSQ

B1: F4.33.12 (antibody, human IgG1, V domains shown)
VH: QVQLQQSGAELVRPGSSVKISCKGSGYAFSSYWMNWVKQRPGQGLEWIGQIYPGDGDTNYNGKFKGKATLTADKSSSTAYMQLSSLTSEDSAVYFCARAGFYYGSDSSMDYWGQGTSVTVSS
VL: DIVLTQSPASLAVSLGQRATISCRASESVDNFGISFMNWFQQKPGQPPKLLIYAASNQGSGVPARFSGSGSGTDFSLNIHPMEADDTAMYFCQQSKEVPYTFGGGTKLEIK
notes: human-murine chimeric antibody, human IgG1
B2: F4.22.6 (antibody, human IgG1, V domains shown)
VH: QVQLQQSGPELVKPGASVKISCKASGYAFSSFWMNWVKQRPGQGLEWIGRIYPGDGDTNYNGKFKGKATLTADKSSTTAYMHLSSLTSVDSAVYFCTRSVITAVVDWYFDVWGAGTTVTVSS
VL: QIVLSQSPAILSASPGEKVTLTCRASSSVNFMHWYQQKPGSSPKPWIYATSNLASGAPARFSGSGSGTSYSLTISRVEAEDAAAYYCQQWSSYPIFTFGSGTKLEIK
notes: as for B1
B3: F4.48.12 (antibody, human IgG1, V domains shown)
VH: QMQLKESGPGLVAPSQSLSITCTVSGFSLTDYGVSWIRQPPGKGLEWLGVIWGSGSTFYNSALTSRLSISKDNSKSQVFLKMNSLQTADTAMYFCAKHHYYGGSFAMDYWGQGTSVTVSS
VL: DIQMTQASSSLSASLGDRVTISCKTSQDISNYLNWYQQKPDGTFKLLIHYTSRLHSGVPSRFSGSGSGSDYSLTISNLEREDIATYFCQQGNSLPYTFGGGTKLEMK
notes: as for B1
B4: F4.41.1 (antibody, human IgG1, V domains shown)
VH: QVQLQQSGAELVRPGTSVKVSCKASGYAFTNYLIEWVKQRPGQGLEWIGVINPGSGDTLYNEKFKGKATLTADKSSTTAYMQLSGLTSDVSAIYFCARSPPITTIVADYFDYWGQGTTLTVSS
VL: DIQMTQTTSSLSASLGDRVTISCRASQDISNYLNWYQQKPDGTVKLLIYYTSRLHSGVPSRFSGSGSGADYSLTISNLEQEDIATYFCQQGKTLPYTFGGGTKLEIK
notes: as for B1

The first experiment concerns the target T1, murine CD19 protein. The experiment is described as follows: ELISA, coated murine CD19. The gist of the method: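 Plates coated overnight at 4° C with recombinant murine or monkey CD19 and blocked with 2% BSA. Chimeric antibodies, serially diluted from 100 nM, bound for 2 h at 37° C. TMB development for 10 min with OD450 read-out.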
In general terms: In an ELISA, binding on a coated surface is turned into a signal by an enzyme label.
For the molecule B1, the binding result is given as “no binding”.
Still for that read-out and setting: the same measure for B2: “no binding”.
Take B3: the binding result is “no binding”.
As for B4, the binding result is given as “no binding”.

The next experiment has as its target T2, Human CD19-his protein. As to the kind of experiment: ELISA, antibody at 0.0001 nM.
Consider B1, for which the OD450 worked out at 0.05.
The molecule B2 gave an OD450 of 0.06.
As to B3, the OD450 worked out at 0.06.
Molecule B4 registered an OD450 of 0.05.

For a further experiment, the target named is T2, Human CD19-his protein. The experiment is described as follows: ELISA, antibody at 100 nM.
Turning to B1, the OD450 was 1.64.
Molecule B2 showed an OD450 of 0.88.
B3 displayed an OD450 of 1.93.
In the case of B4, the OD450 stood at 0.68.

In another experiment the target is T3, human CD19 exon1-3-his protein. The experiment is described as follows: ELISA, coated at 2 ug/mL.
With B1, the binding result was “no binding”.
The same measure, in the same setting: then B2, with “no binding”.
Regarding B3, the binding result is reported as “no binding”.
For the molecule B4, the binding result is recorded as “no binding”.

The next experiment deals with T2, Human CD19-his protein. As to the kind of experiment: ELISA, antibody at 1.00 nM.
The molecule B1 displayed an OD450 of 1.37.
As for B2, the OD450 turned out to be 0.83.
B3 came in with an OD450 of 1.89.
Molecule B4 returned an OD450 of 0.43.

The target in the next experiment is T2, Human CD19-his protein. As to the kind of experiment: ELISA, antibody at 10 nM.
In turn, B1 gave an OD450 of 1.72.
Same read-out and setting: the same measure for B2: 0.96.
Same read-out and setting: then B3, with 1.76; and B4, with 0.61.

For another experiment, the target named is T2, Human CD19-his protein. The experiment is described as follows: ELISA, antibody at 0.01 nM.
For B1, the OD450 was determined as 0.11.
Molecule B2 displayed an OD450 of 0.17.
Same read-out and setting: then B3, with 0.38; and B4, with 0.07.

In the next experiment the target is T2, Human CD19-his protein. As to the kind of experiment: ELISA, antibody at 0.10 nM.
B1: the OD450 came to 0.51.
On the same count and under the same terms, then B2, with 0.62; and B3, with 1.56; and B4, with 0.16.

Another experiment deals with T2, Human CD19-his protein. The experiment is described as follows: ELISA on coated human CD19-His.
The EC50 (read off the curve) is the concentration needed to bring the measured effect to its halfway point. High values mean a need for much substance, low ones an effect from little substance. For the molecule B1, the concentration for a half-maximal effect (EC50 (read off the curve)) was approximately 300 pM.
Take B2: the “EC50 (read off the curve)” value is approximately 50 pM.
B3: the “EC50 (read off the curve)” value was approximately 30 pM.
B4: the “EC50 (read off the curve)” value is approximately 500 pM.

A further experiment deals with T2, Human CD19-his protein. As to the kind of experiment: ELISA, antibody at 0.001 nM.
Regarding B1, the OD450 stood at 0.06.
B2: the OD450 turned out to be 0.08.
On to B3, for which the OD450 was 0.09.
Consider B4, for which the OD450 came to 0.05.

Source of the values: patent publication US20250042994A1 (HAINAN SIMCERE ZAIMING PHARMACEUTICAL, published 2025).
